The source of these data is PMC10324392, “Enabling Peptide Ligation at Aromatic Junction Mimics via Native Chemical Ligation and Palladium-Mediated S-Arylation”.

Series [1] concerns the target Max DNA-binding domain (synthetic, S-arylated);Myc DNA-binding domain (synthetic, S-arylated) (;, UniProt P61244;P01106 ;, F43C, then Cys43 S-arylated with Pd-1 to a Phe mimic|Y402C, then Cys402 …). The series is described as follows: EMSA; equimolar Myc and Max; 1 uM DNA; 0, 4, 8 uM protein; EMSA: 10 mM MES, 150 mM KCl, 1 mM MgCl2, 10% glycerol, room temperature 1 h, 10% TBE gel, pH not given; BLI: 1x PBS, 0.1% BSA, 0.02% Tween-20, streptavidin sensors, temperature not given. As to conditions: tags: ;; copies: 1;1; (22 bp, only one strand printed). For orientation: In EMSA bound probe runs differently from free probe, usually more slowly.

Series [2] deals with Max DNA-binding domain (synthetic, S-arylated) (UniProt P61244, F43C, then Cys43 S-arylated with Pd-1 to a Phe mimic). The series is described as follows: BLI; EMSA: 10 mM MES, 150 mM KCl, 1 mM MgCl2, 10% glycerol, room temperature 1 h, 10% TBE gel, pH not given; BLI: 1x PBS, 0.1% BSA, 0.02% Tween-20, streptavidin sensors, temperature not given. As to conditions: chain copies: 2; (22 bp, only one strand printed). (In BLI a coated tip is dipped into the sample, and binding shifts an interference pattern.)
Sequence of Max DNA-binding domain (synthetic, S-arylated) (P61244 22-102 F43C): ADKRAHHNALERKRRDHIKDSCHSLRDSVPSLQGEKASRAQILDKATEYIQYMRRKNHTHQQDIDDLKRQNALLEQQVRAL

One may read the Kd as the constant that tells how readily two partners part at equilibrium. Higher therefore signals lower affinity.

Sequence of Max DNA-binding domain (synthetic, S-arylated);Myc DNA-binding domain (synthetic, S-arylated) (P61244 22-102, stated change not applied, chain 1 of 2): as the sequence (P61244 22-102 F43C) above, with C22F counted along it
Sequence of Max DNA-binding domain (synthetic, S-arylated);Myc DNA-binding domain (synthetic, S-arylated) (P01106 369-449, stated change not applied, chain 2 of 2): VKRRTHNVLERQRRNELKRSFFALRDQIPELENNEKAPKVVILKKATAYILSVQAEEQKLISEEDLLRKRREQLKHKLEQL

B1: E-box DNA probe (22 bp) (dsDNA)
DNA 1: CCGGCTGACACGTGGTATTAAT
DNA 2: ATTAATACCACGTGTCAGCCGG
With B1, in series [1], the binding result was “binds”.

B2: biotinylated E-box DNA probe (BLI) (dsDNA)
DNA 1: CCGGCTGACACGTGGTATTAAT
DNA 2: ATTAATACCACGTGTCAGCCGG
As for B2, the affinity in series [2], expressed as Kd, was 14.8 ± 0.2 nM.
